# Source: IntAct's records for PubMed 29983246
# B1: Mitochondrial-derived peptide MOTS-c (Homo sapiens), A0A0C5B5G6 (parent)
# chain: MRWQEMGYIFYPRKLR
# partner: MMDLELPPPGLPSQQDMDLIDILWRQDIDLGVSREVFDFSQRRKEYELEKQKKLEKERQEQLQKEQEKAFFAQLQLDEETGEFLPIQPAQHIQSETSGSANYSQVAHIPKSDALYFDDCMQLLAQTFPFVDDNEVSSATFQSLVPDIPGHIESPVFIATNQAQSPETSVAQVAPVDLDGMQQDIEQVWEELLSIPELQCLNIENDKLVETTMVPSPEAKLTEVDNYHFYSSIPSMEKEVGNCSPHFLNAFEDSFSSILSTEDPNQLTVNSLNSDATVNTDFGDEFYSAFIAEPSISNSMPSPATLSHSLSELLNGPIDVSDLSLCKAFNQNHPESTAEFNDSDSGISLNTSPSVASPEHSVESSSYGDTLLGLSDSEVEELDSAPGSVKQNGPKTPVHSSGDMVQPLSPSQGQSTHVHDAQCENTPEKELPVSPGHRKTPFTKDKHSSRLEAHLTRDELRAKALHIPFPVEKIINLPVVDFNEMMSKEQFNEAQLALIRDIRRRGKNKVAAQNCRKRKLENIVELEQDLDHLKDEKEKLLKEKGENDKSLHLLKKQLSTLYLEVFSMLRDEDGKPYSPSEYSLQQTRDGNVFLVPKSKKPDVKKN
# Variants of: B1
# Conditions: with nf2l2_human NFE2L2, Q16236
row,Variant,effect of a mutation on the interaction
1,MRWQEMGYIFYPAAAA [R13A;K14A;L15A;R16A],with no effect
